# Laboratory results published in paper PMC7854685, “Histone Parylation factor 1 contributes to the inhibition of PARP1 by cancer drugs” (Nature Communications, 2021).
# Several values for one entry are separate records, joined by “and”; a condition that tells them apart may be missing. Equal values may be shown once. Entries after “also recorded” stand apart in the source; their conditions may differ. Read-outs that look alike come from different tables or passages of the source.
# B1: HPF1: Histone PARylation factor, protein that binds PARP1 and PARP2 and provides the catalytic base Glu284 (protein)
# chain: LRKEVENHYKLSLPEDFYHFWKFCEELDPEKPSDSLSASLGLQLVGPYDILAGKHKTKKKSTGLNFNLHWRFYYDPPEFQTIIIGDNKTQYHMGYFRDSPDEFPVYVGINEAKKNCIIVPNGDNVFAAVKLFLTKKLREITDKKKINLLKNIDEKLTEAARELGYSLEQRTVKMKQRDKKVVTKTFHGAGLVVPVDKNDVGYRELPETDADLKRICKTIVEAASDEERLKAFAPIQEMMTFVQFANDECDYGMGLELGMDLFCYGSHYFHKVAGQLLPLAYNLLKRNLFAEIIEEHLANRSQENIDQLAA
# modifications: Alexa647 C2 maleimide label (extent of labeling typically 50-100%); left off: His tag (inferred from the nickel affinity column), end not stated, state not stated
# B2: F280A mutant of HPF1: F280A mutant of HPF1 (protein)
# chain: LRKEVENHYKLSLPEDFYHFWKFCEELDPEKPSDSLSASLGLQLVGPYDILAGKHKTKKKSTGLNFNLHWRFYYDPPEFQTIIIGDNKTQYHMGYFRDSPDEFPVYVGINEAKKNCIIVPNGDNVFAAVKLFLTKKLREITDKKKINLLKNIDEKLTEAARELGYSLEQRTVKMKQRDKKVVTKTFHGAGLVVPVDKNDVGYRELPETDADLKRICKTIVEAASDEERLKAFAPIQEMMTFVQAANDECDYGMGLELGMDLFCYGSHYFHKVAGQLLPLAYNLLKRNLFAEIIEEHLANRSQENIDQLAA
# Columns and labels:
# PARP1 = biological target: T1, PARP1 (Homo sapiens, UniProt P09874); test: Rate of autoPARylation k2[NAD+] (DNA release without PARPi) in presence or absence of HPF1; format: biochemical
# T1 construct: Wild-type PARP1 and PARP2 were expressed and purified as previously described; made in house
# T1 sequence (P09874 whole entry): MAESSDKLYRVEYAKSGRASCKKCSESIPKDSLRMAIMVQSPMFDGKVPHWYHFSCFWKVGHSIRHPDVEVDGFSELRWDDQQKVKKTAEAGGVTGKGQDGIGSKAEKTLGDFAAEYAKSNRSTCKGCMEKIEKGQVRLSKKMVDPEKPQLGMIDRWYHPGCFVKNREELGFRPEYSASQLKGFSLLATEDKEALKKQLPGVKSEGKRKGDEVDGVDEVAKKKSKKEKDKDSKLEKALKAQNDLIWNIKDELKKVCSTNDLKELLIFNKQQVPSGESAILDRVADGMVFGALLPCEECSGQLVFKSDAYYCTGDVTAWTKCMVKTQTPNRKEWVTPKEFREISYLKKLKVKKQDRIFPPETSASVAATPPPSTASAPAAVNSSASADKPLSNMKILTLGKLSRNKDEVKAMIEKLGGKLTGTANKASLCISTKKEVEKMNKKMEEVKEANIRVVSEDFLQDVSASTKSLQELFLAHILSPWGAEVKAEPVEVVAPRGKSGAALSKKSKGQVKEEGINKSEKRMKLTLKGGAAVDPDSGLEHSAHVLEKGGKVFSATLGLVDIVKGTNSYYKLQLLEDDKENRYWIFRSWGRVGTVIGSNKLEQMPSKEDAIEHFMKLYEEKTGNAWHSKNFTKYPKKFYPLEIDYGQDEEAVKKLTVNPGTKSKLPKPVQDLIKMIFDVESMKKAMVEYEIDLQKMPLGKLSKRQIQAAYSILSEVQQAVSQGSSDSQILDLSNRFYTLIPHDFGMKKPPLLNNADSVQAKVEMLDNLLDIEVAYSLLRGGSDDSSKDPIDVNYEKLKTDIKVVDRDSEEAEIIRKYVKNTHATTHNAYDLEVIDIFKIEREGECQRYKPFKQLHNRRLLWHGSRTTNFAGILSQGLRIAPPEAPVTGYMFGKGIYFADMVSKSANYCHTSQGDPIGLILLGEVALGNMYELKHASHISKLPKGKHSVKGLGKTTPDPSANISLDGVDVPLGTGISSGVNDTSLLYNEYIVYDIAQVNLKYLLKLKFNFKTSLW
# Description: (§1) Next, 10 µL of PARP1 or PARP2 (10 nM) premixed with fluorescein labeled p18mer DNA (5 nM), was added to the various dilutions of PARPi and then incubated for 30 min to ensure complete association. Dissociation of labeled DNA was initiated by addition of 10 µL of NAD^+ (2 mM). All concentrations cited are final concentrations in a volume of 30 µL. […] Kinetic data for a range of different PARPi (20–500 nM) were exported to Prism (GraphPad) and were globally fitted to individual exponentials1 y=y0−y∞*e^−kobsx+y0 with the constraints that y0 (the value of the FP signal at t = 0) and y∞ (the value of the FP signal at t = ∞) are shared for all concentrations of PARPi. […] We emphasize that the same correction is applied to the data for all PARPi.
# PARP2 = biological target: T2, PARP2 (Homo sapiens, UniProt Q9UGN5); test: as above; format: biochemical
# T2 construct: Wild-type PARP1 and PARP2 were expressed and purified as previously described; made in house
# T2 sequence (Q9UGN5 whole entry): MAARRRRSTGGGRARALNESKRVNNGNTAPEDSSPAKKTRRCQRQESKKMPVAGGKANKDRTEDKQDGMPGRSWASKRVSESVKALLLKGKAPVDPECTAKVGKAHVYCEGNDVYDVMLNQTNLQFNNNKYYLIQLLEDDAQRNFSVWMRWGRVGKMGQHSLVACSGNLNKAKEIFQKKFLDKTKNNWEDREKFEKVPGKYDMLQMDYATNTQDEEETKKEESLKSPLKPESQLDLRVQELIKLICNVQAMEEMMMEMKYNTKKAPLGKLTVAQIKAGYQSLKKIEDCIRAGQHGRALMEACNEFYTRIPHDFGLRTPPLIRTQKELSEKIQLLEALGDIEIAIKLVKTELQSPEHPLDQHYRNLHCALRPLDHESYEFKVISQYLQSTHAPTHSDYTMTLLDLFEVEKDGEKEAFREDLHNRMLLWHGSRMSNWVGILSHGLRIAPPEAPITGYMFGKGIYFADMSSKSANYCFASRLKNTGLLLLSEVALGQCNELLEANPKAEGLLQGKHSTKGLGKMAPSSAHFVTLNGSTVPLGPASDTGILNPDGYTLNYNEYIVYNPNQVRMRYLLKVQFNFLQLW
# Description: as §1
# [1] = biological target: PARP1 - Nuc165 / PARP1 - p18mer complex (Homo sapiens, UniProt P09874); test: FRET assay of Alexa647-HPF1 binding to Alexa488-PARP1 with p18mer DNA or Nuc165, with or without olaparib; conditions: for Kd: read-out: KD of HPF1
# Sequence of PARP1 - Nuc165 / PARP1 - p18mer complex (P09874 whole entry): as the sequence (P09874 whole entry) above
# Sequence of PARP1 - Nuc165 / PARP1 - p18mer complex (Q9NWY4 whole entry partner): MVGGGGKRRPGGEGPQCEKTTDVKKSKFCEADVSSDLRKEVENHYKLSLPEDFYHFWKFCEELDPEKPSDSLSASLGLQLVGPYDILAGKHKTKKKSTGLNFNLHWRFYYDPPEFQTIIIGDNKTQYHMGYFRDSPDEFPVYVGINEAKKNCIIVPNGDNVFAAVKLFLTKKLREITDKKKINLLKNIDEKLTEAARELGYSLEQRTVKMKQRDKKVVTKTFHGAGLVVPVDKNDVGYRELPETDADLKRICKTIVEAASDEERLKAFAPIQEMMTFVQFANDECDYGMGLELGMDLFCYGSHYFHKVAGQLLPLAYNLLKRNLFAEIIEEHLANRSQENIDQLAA
# Description: Excess unincorporated dye from PARP1 was removed by gel filtration chromatography (S-200). The extent of labeling, defined as the ratio of the molar concentration of dye vs. protein, was determined by UV-Vis spectroscopy and was typically 50–100%. […] All concentrations reflect final concentrations in the plate and all samples were diluted in binding buffer. […] Raw fluorescence intensity values were used to correct the FRET signal for the donor bleed-through and for the acceptor direct excitation, as previously described[43].
Molecule,"kobs (individual replicates) (PARP1; PARP1 +HPF1, no PARPi)","kobs(+HPF1) (PARP1; PARP1, no PARPi, 2 mM NAD+) [s⁻¹]","kobs (PARP2; PARP2 + HPF1, replicate fits of the fluorescence polarization time traces (time in s) of sheet SuppFig4CD)","kobs(+HPF1) (PARP2; PARP2, no PARPi, 2 mM NAD+) [s⁻¹]",factor tighter binding to PARP1—Nuc165 than to PARP1—p18mer ([1]; no olaparib),"Kd ([1]; PARP1 – p18mer complex, in the presence of olaparib (1 µM)) [nM]","Kd ([1]; PARP1—Nuc165 complex, in the presence of olaparib (1 µM)) [nM]","Kd ([1]; PARP1—Nuc165 complex, no olaparib) [nM]",binding to PARP1 – Nuc165 complex ([1]; FRET)
B1,0.019 and 0.025 and 0.031,0.025 ± 0.006,0.09827 and 0.07689 and 0.09446,0.090 ± 0.011,5,1200 ± 500,229 ± 55,790 ± 147,
B2,,,,,,,,,does not bind; also recorded: failed to bind
